Reference: patent publication US20250270332A1

Target: FZD/LRP
Assay: cell-based or functional assay

Sequence of Wnt3a, recombinantly produced ligand (P56704 19-352): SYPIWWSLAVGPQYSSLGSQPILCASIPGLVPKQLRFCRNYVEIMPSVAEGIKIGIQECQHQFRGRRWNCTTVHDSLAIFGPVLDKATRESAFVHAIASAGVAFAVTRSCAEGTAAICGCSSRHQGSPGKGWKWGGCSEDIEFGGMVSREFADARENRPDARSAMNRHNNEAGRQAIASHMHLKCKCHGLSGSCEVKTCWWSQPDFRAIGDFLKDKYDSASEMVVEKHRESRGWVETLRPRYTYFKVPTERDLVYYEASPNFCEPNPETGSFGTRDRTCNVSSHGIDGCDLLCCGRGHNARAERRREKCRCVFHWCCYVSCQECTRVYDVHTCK

Wnt3a, recombinantly produced ligand
% Wnt Maxima Avg: 100% | EC50 (nM), TOPFLASH assay: 6 nM | Maximal Signal (% Wnt3a maxima) (% Wnt3a maxima): 100 | Topflash EC50 (nM) Avg: 6 nM
